The subject of data set [1] is T1, DNA polymerase 3173 (uncultured hot spring virus (Octopus Spring)).
T1 sequence: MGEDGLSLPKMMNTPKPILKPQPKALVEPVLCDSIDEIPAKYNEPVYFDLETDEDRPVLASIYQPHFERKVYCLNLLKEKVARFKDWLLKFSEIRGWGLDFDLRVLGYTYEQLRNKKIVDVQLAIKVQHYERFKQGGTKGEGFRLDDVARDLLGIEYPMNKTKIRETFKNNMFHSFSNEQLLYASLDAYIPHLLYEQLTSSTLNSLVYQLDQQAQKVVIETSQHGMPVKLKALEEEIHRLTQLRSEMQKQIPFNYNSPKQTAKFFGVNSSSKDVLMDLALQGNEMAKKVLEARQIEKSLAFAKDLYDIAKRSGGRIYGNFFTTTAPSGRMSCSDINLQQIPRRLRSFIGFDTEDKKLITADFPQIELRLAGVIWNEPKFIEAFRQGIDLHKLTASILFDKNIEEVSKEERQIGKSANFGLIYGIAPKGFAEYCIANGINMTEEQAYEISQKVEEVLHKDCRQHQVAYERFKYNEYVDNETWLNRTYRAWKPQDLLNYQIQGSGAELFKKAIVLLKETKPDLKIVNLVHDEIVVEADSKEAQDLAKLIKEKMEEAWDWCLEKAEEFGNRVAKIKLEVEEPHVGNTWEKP
Conditions: dNTP incorporation, 60 C, 2 mM MgSO4; background <100 cpm.

Data set [2] relates to T2, DNA polymerase clone 347 (uncultured hot spring virus (Great Boiling Spring)).
T2 sequence: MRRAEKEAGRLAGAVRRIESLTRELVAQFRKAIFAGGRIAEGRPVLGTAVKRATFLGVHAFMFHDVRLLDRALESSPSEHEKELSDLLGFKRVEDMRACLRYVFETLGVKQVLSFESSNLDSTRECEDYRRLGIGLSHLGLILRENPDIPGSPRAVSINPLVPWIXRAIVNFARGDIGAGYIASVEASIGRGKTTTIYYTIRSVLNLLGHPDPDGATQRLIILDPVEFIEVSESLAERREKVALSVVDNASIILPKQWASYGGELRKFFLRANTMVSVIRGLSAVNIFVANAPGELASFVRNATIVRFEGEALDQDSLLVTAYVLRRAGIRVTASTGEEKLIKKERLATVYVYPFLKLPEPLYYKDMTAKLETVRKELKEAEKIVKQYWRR
As to conditions: dNTP incorporation; background <500.

Data set [3] concerns T3, DNA polymerase clone 1937 (uncultured hot spring virus (Great Boiling Spring)).
T3 sequence: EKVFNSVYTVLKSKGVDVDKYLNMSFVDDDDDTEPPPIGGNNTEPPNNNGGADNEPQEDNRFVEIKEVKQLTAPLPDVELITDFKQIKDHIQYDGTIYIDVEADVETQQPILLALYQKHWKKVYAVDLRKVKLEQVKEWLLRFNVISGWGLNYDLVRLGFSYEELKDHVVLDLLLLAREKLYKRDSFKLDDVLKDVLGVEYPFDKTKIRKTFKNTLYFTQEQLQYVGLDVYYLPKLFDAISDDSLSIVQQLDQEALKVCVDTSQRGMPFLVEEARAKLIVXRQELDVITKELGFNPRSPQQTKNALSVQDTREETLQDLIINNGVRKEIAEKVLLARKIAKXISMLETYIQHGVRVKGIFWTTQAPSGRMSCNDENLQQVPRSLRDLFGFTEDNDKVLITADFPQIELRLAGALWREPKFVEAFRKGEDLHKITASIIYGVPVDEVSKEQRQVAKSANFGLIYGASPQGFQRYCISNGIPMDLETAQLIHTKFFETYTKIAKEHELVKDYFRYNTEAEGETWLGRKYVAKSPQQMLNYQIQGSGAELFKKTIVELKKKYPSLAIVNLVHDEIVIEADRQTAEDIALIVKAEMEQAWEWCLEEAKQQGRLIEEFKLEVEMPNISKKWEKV
Conditions: dNTP incorporation; background <500.

The subject of data set [4] is T4, DNA polymerase clone 1753 (uncultured hot spring virus (Great Boiling Spring)).
T4 sequence: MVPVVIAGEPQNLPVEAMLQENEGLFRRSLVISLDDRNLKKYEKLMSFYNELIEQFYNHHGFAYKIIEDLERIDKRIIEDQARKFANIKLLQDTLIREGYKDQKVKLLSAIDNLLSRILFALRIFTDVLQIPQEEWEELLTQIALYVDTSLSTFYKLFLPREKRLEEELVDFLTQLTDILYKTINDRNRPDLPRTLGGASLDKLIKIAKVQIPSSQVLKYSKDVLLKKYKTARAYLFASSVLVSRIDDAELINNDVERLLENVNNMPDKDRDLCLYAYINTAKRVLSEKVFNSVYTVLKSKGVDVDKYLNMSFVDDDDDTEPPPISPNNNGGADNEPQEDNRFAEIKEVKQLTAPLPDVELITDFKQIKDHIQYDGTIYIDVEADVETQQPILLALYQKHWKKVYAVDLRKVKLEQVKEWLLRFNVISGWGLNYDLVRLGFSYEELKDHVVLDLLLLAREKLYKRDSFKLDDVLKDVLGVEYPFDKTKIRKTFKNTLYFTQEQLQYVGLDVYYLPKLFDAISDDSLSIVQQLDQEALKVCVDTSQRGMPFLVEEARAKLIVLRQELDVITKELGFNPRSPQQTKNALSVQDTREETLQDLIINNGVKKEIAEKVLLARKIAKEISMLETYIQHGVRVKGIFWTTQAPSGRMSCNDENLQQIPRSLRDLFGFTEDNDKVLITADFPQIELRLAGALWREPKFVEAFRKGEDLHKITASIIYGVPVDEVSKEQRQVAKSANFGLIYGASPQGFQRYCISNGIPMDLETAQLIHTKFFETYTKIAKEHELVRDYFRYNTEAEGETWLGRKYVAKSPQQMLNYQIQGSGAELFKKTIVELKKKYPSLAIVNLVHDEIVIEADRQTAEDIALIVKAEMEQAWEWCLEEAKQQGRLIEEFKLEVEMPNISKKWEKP
As to conditions: dNTP incorporation; background <500.

Results on one substance are retold here after US20100291638.

On to activated calf thymus DNA, for which the activity was greater than 1000 cpm in data set [1], 18700 cpm in data set [2], 70300 cpm in data set [3] and 141000 cpm in data set [4].
